Source: US5326856A, “Bifunctional isothiocyanate derived thiocarbonyls as ligands for metal binding” (Cytogen Corporation, priority 1992, dated 1994)
Blank lines part the entries; values can stand above or below the substance they belong to. Ends that are not written are not given here. chelating agent A = 3,5-di-(1-trimethylammoniumacetyl)-4-thiosemicarbazidobenzoic acid, dichloride salt

Assays:
activated platelets = experiment: Aggregometer assay; type: cell-based
clot [1] = experiment: Gamma camera thrombus imaging in rabbits; type: in vivo, New Zealand White rabbits; details: FIG. 8
Experimental: (§1) The specificity of uptake of Tc-99m labeled peptide […]-chelating agent A conjugate into rabbit thrombi was determined by directly comparing tissue uptake and images obtained in animals with an induced thrombus to those receiving a sham operation without induced thrombus.
Two groups of 3 rabbits were used. All animals were subjected to surgery to expose the superficial jugular vein as described in detail below. In the first group of animals, the jugular veins were clamped off and a silk thread was inserted into the jugular veins. These veins also received an injection of 10 units of bovine thrombin in 0.1 ml isotonic saline directly into the vein. […]
The peptide-chelating agent conjugate prepared as in Section 9, supra, was radiolabeled with Tc-99m as follows: Tc-99m was eluted from a molybdenum generator and adjusted to 40 mCi/ml with isotonic saline. […] After this incubation period the material was drawn into an appropriately labelled 5 ml syringe and a sample was analyzed by instant thin layer chromatography (ITLC) to determine radiochemical purity as described in Section 9, supra. This material was acceptable for injection into rabbits only if the radiochemical purity was ≥95% and the amount of radioactivity available for injection was within 20% of that required by this protocol (e.g., 4.8-7.3 mCi). […]

clot [2] = experiment: Biodistribution by dissection in rabbits with induced thrombus; type: in vivo, New Zealand White rabbits; details: for 99M Tc / % ID/G (percent of injected dose per gram of tissue) / TISS:BLD / TISS:MUSC: 4 h after injection
Experimental: as §1
Two groups of 3 rabbits were used. All animals were subjected to surgery to expose the superficial jugular vein as described in detail below. In the first group of animals, the jugular veins were clamped off and a silk thread was inserted into the jugular veins. These veins also received an injection of 10 units of bovine thrombin in 0.1 ml isotonic saline directly into the vein. The second (sham control) group of animals was subjected to the same surgical procedures as the experimental group except that no silk was inserted into the veins of these animals and the veins received an injection of 0.1 ml isotonic saline only. Due to logistical difficulties in handling six animals at one time, the experiment was conducted in three parts, each part consisting of one sham and one thrombus-induced animal done in parallel on each of 3 days. Specific pathogen-free New Zealand White rabbits (2-2.6 kg) were used.
The model system of Collen et al. (1983, J. Clin. Invest. 71:368-376) was used (with minor modifications described below) to induce experimental thrombi in rabbits. The animals were anesthetized by intramuscular injection of 40 mg/kg ketamine-HC1 and 4 mg/kg acepromazine maleate. Just prior to surgery, the animals received 10 mg/kg sodium pentobarbital, which was also administered as needed during the course of the surgery. The neck area was shaved and swabbed with disinfectant. The jugular vein was exposed by making about a 5 cm paramedial incision, the vein was freed from tissues over about a 4 cm distance (up to the main bifurcation of the facial vein) and the side branches of the jugular were ligated. A 1-inch segment was clamped off with hemostats and, in the experimental (group 1) animals, a silk thread was placed longitudinally inside the vein and was tied off at each end. No suture was placed in the veins of sham control (group 2) animals. Ten (10) units of bovine thrombin in 0.1 ml of isotonic saline (or saline alone in sham control animals) was injected into the clamped vein segment using a 27 gauge needle. Thirty minutes later, the animals were given an intravenous injection (in the contralateral marginal ear vein) of a mixture of 2-7 μCi of Tc-99m labelled peptide-chelating agent conjugate.
The peptide-chelating agent conjugate prepared as in Section 9, supra, was radiolabeled with Tc-99m as follows: Tc-99m was eluted from a molybdenum generator and adjusted to 40 mCi/ml with isotonic saline. Fifty (50) mCi of this preparation was transferred to a Glucoscan vial (Dupont, Billerica, MA) and mixed. Six (6) mCi of Tc-99m/glucoscan mixture was then added to a vial containing 50 μg of the peptide-chelating agent conjugate and incubated for 1 h at room temperature. After this incubation period the material was drawn into an appropriately labelled 5 ml syringe and a sample was analyzed by instant thin layer chromatography (ITLC) to determine radiochemical purity as described in Section 9, supra. This material was acceptable for injection into rabbits only if the radiochemical purity was ≥95% and the amount of radioactivity available for injection was within 20% of that required by this protocol (e.g., 4.8-7.3 mCi).
All animals were dissected 4 h (240 min) after injection. A 3 ml blood sample was drawn, after which the animals were euthanized with an i.v. injection of T-61 euthanasia solution (American Hoechst, Sommerville, N.J.). The vein segment was surgically removed and the thrombus therein (if any) was isolated from the vein. A segment of the contralateral vein was also removed and a sample of muscle was obtained from an area of the neck distal to the surgical field. […]

Substance: Chelating Agent A-NH-SYRGDVRGDF: chelating agent A coupled with SYRGDVRGDF-NH2 peptide ({chelating agent A}-SYRGDVRGDF-NH2)
- IC50 (activated platelets): 19.3 µM
- clot-binding potency relative to the native peptide (activated platelets; relative to native peptide): full or even enhanced clot-binding potency

- IC50 (activated platelets): 28.8 µM
Substance: SYRGDVRGDF [reference compound]

Substance: Tc-99m-labeled SYRGDVRGDF-chelating agent A conjugate: peptide-chelating agent conjugate prepared as in Section 9, radiolabeled with Tc-99m (SYRGDVRGDF-NH2; not fully specified (N-terminus); also: chelating agent A conjugate, site not given here, Tc-99m labelled (metal complex))
- localization to clot in gamma camera imaging (clot [1]; 2 hours and 4 hours): localization of Tc-99m-labeled SYRGDVRGDF-chelating agent A conjugate to a clot
- blood pool accumulation, area of the head (clot [1]; gamma camera image): blood pool accumulation of peptide-chelating agent A, which is non-specific
- 99M Tc (clot [2]; Blood): 318229
- % ID/G (percent of injected dose per gram of tissue) (clot [2]; Blood): 0.0399 % ID/G
- 99M Tc (clot [2]; Clot (Target)): 94319
- % ID/G (percent of injected dose per gram of tissue) (clot [2]; Clot (Target)): 0.3312 % ID/G
- TISS:BLD (clot [2]; Clot (Target)): 28.30
- TISS:MUSC (clot [2]; Clot (Target)): 27.83
- 99M Tc (clot [2]; Muscle): 22369
- % ID/G (percent of injected dose per gram of tissue) (clot [2]; Muscle): 0.0119 % ID/G
- 99M Tc (clot [2]; Vessel): 95629
- % ID/G (percent of injected dose per gram of tissue) (clot [2]; Vessel): 0.0870 % ID/G
- TISS:BLD (clot [2]; Vessel): 2.18
- TISS:MUSC (clot [2]; Vessel): 7.28
- clot % ID/G relative to blood (clot [2]; clot vs blood): 8 fold
- clot % ID/G relative to the blood vessel (clot [2]; clot vs blood vessel): 4 fold
- % ID/G for the clot (clot [2]; clot, percent of injected dose per gram of tissue): 0.33%
